Reference: the supplement of paper PMC7877785
± gives the uncertainty stated by the source.

Assay: self-splicing fitness, log relative to wild type (ln ratio); higher = more splicing; Tetrahymena group I intron in knt gene, E. coli kanamycin selection, DiMSum; sequences stand for … in CUCUCU…GGAGGGAAAAGUUAUCAGGCAUGCACCUGGUAGCUAGUCUUUAAACCAAUAGAUUGCAUCGGUUUAAAAGGCAAGACCGUCAAAUUGCGGGAAAGGGGUCAACAGCCGUUCAGUACCAAGUCUCAGGGGAAACUUUGAGAUGGCCUUGCAAAGGGUAUGGUAAUAAGCUGACGGACAUGGUCCUAACCACGCAGCCAAGUCCUAAGUCAACAGAUCUUCUGUUGAUAUGGAUGCAGUUCACAGACUAAAUGUCGGUCGGGGAAGAUGUAUUCUUCUCAUAAGAUAUAGUCGGACCUCUCCUUAAUGGGAGCUAGCGGAUGAAGUGAUGCAACACUGGAGCCGCUGGGAACUAAUUUGUAUGCGAAAGUAUAUUGAUUAGUUUUGGAGUACUCGUGGUCG
How it was run: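 The eight P1ex-region nucleotides of an intron in the knt kanamycin-resistance gene on pET-22b(+) were all randomised and the library put into E. coli BL21(DE3). Six replicate transformations were grown overnight at 37°C or 30°C on LB agar with or without 25 μg/mL kanamycin, together with 100 μg/mL carbenicillin, 50 μM IPTG and 0.2% rhamnose. Colonies were pooled and amplicon-sequenced on an Illumina HiSeq 2500. Fitness from DiMSum is the error-weighted combination of wild-type-normalised replicate fold changes, kanamycin over none.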

ACCCAGCAAUAUUACGGGCG
self-splicing fitness (ln) (30 °C): -0.609 ± 0.055
self-splicing fitness (ln) (37 °C): -0.0252 ± 0.077

ACCCAGCAAUAUUACGGUGC
self-splicing fitness (ln) (30 °C): -1.11 ± 0.069
self-splicing fitness (ln) (37 °C): -0.261 ± 0.086

ACCCAGCAAUAUUACGGUGG
self-splicing fitness (ln) (30 °C): -3.57 ± 0.15
self-splicing fitness (ln) (37 °C): -2.76 ± 0.18

ACCCAGCAAUAUUACGGUUC
self-splicing fitness (ln) (30 °C): -2.22 ± 0.072
self-splicing fitness (ln) (37 °C): -1.32 ± 0.094

ACCCAGCAAUAUUACGGUUU
self-splicing fitness (ln) (30 °C): -0.863 ± 0.041
self-splicing fitness (ln) (37 °C): 0.0681 ± 0.056

ACCCAGCAAUAUUACGUAGG
self-splicing fitness (ln) (30 °C): -0.517 ± 0.064
self-splicing fitness (ln) (37 °C): -0.48 ± 0.081

ACCCAGCAAUAUUACGUAUG
self-splicing fitness (ln) (30 °C): -3.89 ± 0.14
self-splicing fitness (ln) (37 °C): -1.77 ± 0.11

ACCCAGCAAUAUUACGUCAA
self-splicing fitness (ln) (30 °C): -1.88 ± 0.099
self-splicing fitness (ln) (37 °C): -1.59 ± 0.11

ACCCAGCAAUAUUACGUCCG
self-splicing fitness (ln) (30 °C): -3.83 ± 0.22
self-splicing fitness (ln) (37 °C): -0.701 ± 0.14

ACCGAGCAAUAUUACGAAUA
self-splicing fitness (ln) (30 °C): -3.02 ± 0.32
self-splicing fitness (ln) (37 °C): -2.41 ± 0.2

ACCGAGCAAUAUUACGACAU
self-splicing fitness (ln) (30 °C): -2.219 ± 0.015
self-splicing fitness (ln) (37 °C): -1.3 ± 0.033

ACCGAGCAAUAUUACGCAAA
self-splicing fitness (ln) (30 °C): -3.62 ± 0.24
self-splicing fitness (ln) (37 °C): -3.11 ± 0.24

ACCGAGCAAUAUUACGCAAG
self-splicing fitness (ln) (30 °C): -3.36 ± 0.17
self-splicing fitness (ln) (37 °C): -2.35 ± 0.18

ACCGAGCAAUAUUACGCAUU
self-splicing fitness (ln) (30 °C): -3.91 ± 0.17
self-splicing fitness (ln) (37 °C): -1.78 ± 0.12

ACCGAGCAAUAUUACGCGAG
self-splicing fitness (ln) (30 °C): -2.75 ± 0.19
self-splicing fitness (ln) (37 °C): -2.06 ± 0.15

ACCGAGCAAUAUUACGCUAC
self-splicing fitness (ln) (30 °C): -3.58 ± 0.19
self-splicing fitness (ln) (37 °C): -2.86 ± 0.24

ACCGAGCAAUAUUACGCUUA
self-splicing fitness (ln) (30 °C): -1.56 ± 0.14
self-splicing fitness (ln) (37 °C): -1.63 ± 0.17

ACCGAGCAAUAUUACGCUUU
self-splicing fitness (ln) (30 °C): -3.06 ± 0.28
self-splicing fitness (ln) (37 °C): -1.56 ± 0.15

ACCGAGCAAUAUUACGGACA
self-splicing fitness (ln) (30 °C): -1.25 ± 0.15
self-splicing fitness (ln) (37 °C): -0.523 ± 0.15

ACCGAGCAAUAUUACGGAUG
self-splicing fitness (ln) (30 °C): -2.12 ± 0.12
self-splicing fitness (ln) (37 °C): -1.85 ± 0.098

ACCGAGCAAUAUUACGGCAA
self-splicing fitness (ln) (30 °C): -1.19 ± 0.12
self-splicing fitness (ln) (37 °C): -1.48 ± 0.12

ACCGAGCAAUAUUACGGUUU
self-splicing fitness (ln) (30 °C): -3.42 ± 0.14
self-splicing fitness (ln) (37 °C): -2.35 ± 0.18

ACCGAGCAAUAUUACGUAAC
self-splicing fitness (ln) (30 °C): -4.02 ± 0.32
self-splicing fitness (ln) (37 °C): -2.88 ± 0.35

ACCGAGCAAUAUUACGUAGA
self-splicing fitness (ln) (30 °C): -4.48 ± 0.29
self-splicing fitness (ln) (37 °C): -2.69 ± 0.18

ACCGAGCAAUAUUACGUCAU
self-splicing fitness (ln) (30 °C): -5.01 ± 0.34
self-splicing fitness (ln) (37 °C): -2.68 ± 0.14

ACCGAGCAAUAUUACGUCUC
self-splicing fitness (ln) (30 °C): -3.22 ± 0.32
self-splicing fitness (ln) (37 °C): -2.77 ± 0.48

ACCGAGCAAUAUUACGUCUU
self-splicing fitness (ln) (30 °C): -2.91 ± 0.12
self-splicing fitness (ln) (37 °C): -2.22 ± 0.13

ACCGAGCAAUAUUACGUGCU
self-splicing fitness (ln) (30 °C): -3.32 ± 0.25
self-splicing fitness (ln) (37 °C): -2.49 ± 0.27

ACCGAGCAAUAUUACGUUUU
self-splicing fitness (ln) (30 °C): -3.3 ± 0.15
self-splicing fitness (ln) (37 °C): -2.59 ± 0.15

ACCUAGCAAUAUUACGAAAC
self-splicing fitness (ln) (30 °C): -2.68 ± 0.15
self-splicing fitness (ln) (37 °C): -2.31 ± 0.19

ACCUAGCAAUAUUACGAGAA
self-splicing fitness (ln) (30 °C): -2.97 ± 0.35
self-splicing fitness (ln) (37 °C): -2.29 ± 0.31

ACCUAGCAAUAUUACGAGAG
self-splicing fitness (ln) (30 °C): -2.34 ± 0.13
self-splicing fitness (ln) (37 °C): -0.462 ± 0.08

ACCUAGCAAUAUUACGAUUA
self-splicing fitness (ln) (30 °C): -2.05 ± 0.15
self-splicing fitness (ln) (37 °C): -1.51 ± 0.12

ACCUAGCAAUAUUACGCAUG
self-splicing fitness (ln) (30 °C): -2.27 ± 0.15
self-splicing fitness (ln) (37 °C): -1.42 ± 0.14

ACCUAGCAAUAUUACGCCGA
self-splicing fitness (ln) (30 °C): -2.23 ± 0.13
self-splicing fitness (ln) (37 °C): -1.01 ± 0.13

ACCUAGCAAUAUUACGCCUU
self-splicing fitness (ln) (30 °C): -1.43 ± 0.098
self-splicing fitness (ln) (37 °C): 0.204 ± 0.12

ACCUAGCAAUAUUACGCGUG
self-splicing fitness (ln) (30 °C): -0.901 ± 0.077
self-splicing fitness (ln) (37 °C): -0.11 ± 0.1

ACCUAGCAAUAUUACGCUAG
self-splicing fitness (ln) (30 °C): -3.86 ± 0.25
self-splicing fitness (ln) (37 °C): -2.79 ± 0.28

ACCUAGCAAUAUUACGCUGA
self-splicing fitness (ln) (30 °C): -1.59 ± 0.082
self-splicing fitness (ln) (37 °C): -0.127 ± 0.09

ACCUAGCAAUAUUACGGAGG
self-splicing fitness (ln) (30 °C): -2.4 ± 0.14
self-splicing fitness (ln) (37 °C): -2.16 ± 0.21

ACCUAGCAAUAUUACGGGCC
self-splicing fitness (ln) (30 °C): -2.34 ± 0.18
self-splicing fitness (ln) (37 °C): -0.63 ± 0.16

ACCUAGCAAUAUUACGUACG
self-splicing fitness (ln) (30 °C): -2.46 ± 0.16
self-splicing fitness (ln) (37 °C): -1.02 ± 0.14

ACCUAGCAAUAUUACGUCUA
self-splicing fitness (ln) (30 °C): -2.44 ± 0.21
self-splicing fitness (ln) (37 °C): -2.04 ± 0.25

ACCUAGCAAUAUUACGUGCG
self-splicing fitness (ln) (30 °C): -1.5 ± 0.069
self-splicing fitness (ln) (37 °C): -0.773 ± 0.077

ACCUAGCAAUAUUACGUGUC
self-splicing fitness (ln) (30 °C): -4.29 ± 0.29
self-splicing fitness (ln) (37 °C): -2.24 ± 0.17

ACCUAGCAAUAUUACGUUUG
self-splicing fitness (ln) (30 °C): -2.6 ± 0.08
self-splicing fitness (ln) (37 °C): -2.03 ± 0.11

ACGAAGCAAUAUUACGAACC
self-splicing fitness (ln) (30 °C): -1.75 ± 0.14
self-splicing fitness (ln) (37 °C): -0.895 ± 0.19
